These results are taken from patent US20230277625A1 (SIMCHA IL 18, published 2023).

Usually Kd stands for the equilibrium constant for the complex coming apart. A high value points to a looser complex.

The target in assay [1] is T1, Mouse IL-18Rα ectodomain (amino acids 19-329), biotinylated (mouse, UniProt Q61098 19-329, biotin on the AviTag (BirA ligase)).
T1 construct: range 19-329; Secreted from Expi293 cells (H7 signal peptide removed); also called mIL-18Rα; mIL18Ra
T1 sequence: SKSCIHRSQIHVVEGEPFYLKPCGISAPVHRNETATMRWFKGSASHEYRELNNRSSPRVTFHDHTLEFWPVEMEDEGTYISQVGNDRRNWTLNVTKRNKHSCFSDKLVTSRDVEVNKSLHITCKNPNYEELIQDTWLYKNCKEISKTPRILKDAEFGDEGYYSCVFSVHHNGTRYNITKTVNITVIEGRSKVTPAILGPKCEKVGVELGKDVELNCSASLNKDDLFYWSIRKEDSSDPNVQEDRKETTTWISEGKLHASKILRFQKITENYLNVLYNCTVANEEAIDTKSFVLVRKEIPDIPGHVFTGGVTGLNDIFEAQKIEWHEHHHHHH
The assay is described as follows: on-yeast binding isotherm (flow cytometry). Here is the method: (§1) Individual colonies of IL-18 yeast were grown overnight at 30° C. in SDCAA liquid media and induced in SGCAA liquid media for 1 day at 20° C. IL-18 display levels on yeast were verified by flow cytometry using an anti-cMyc tag antibody (anti-myc-PE; Cell Signaling Technologies). Receptor staining with biotinylated IL-18Rα (with or without IL-18R β) or biotinylated IL-18BP was performed in PBS supplemented with 0.5% BSA and 2 mM EDTA (PBE) on ice. All analysis was performed on a Sony SA3800 flow cytometer.
Background: A flow cytometer gives signals particle by particle.

Assay [2] addresses T2, Mouse IL-18BP (amino acids 31-194), biotinylated (mouse, UniProt Q9Z0M9 29-193, biotin on the AviTag (BirA ligase)).
T2 construct: also called mIL-18BP
T2 sequence: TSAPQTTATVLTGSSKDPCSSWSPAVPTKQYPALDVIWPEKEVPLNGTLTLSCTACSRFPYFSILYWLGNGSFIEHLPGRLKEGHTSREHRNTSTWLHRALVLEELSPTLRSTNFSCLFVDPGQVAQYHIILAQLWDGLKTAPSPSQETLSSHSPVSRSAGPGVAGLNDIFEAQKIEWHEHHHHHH
The assay is described as follows: SPR; range of a group, this end tied to A7 by the 9th table; m is a multiple of 1,000,000. On the technique in general: In SPR one partner is held on a chip, and binding of the other changes the refractive index at the surface.

Assay [3] concerns the target T2, Mouse IL-18BP (amino acids 31-194), …. The assay is described as follows: on-yeast binding isotherms; KD ratio relative to WT IL-18; yeast-displayed variant; ratio normalized to WT, from the 10 µM placeholder. Here is the method: as §1
Assay [4] has the same target. The assay is described as follows: SPR; KD for IL-18BP over KD for IL-18Rα; SPR; ratio of two measured KD. The procedure: (§2) Experiments were conducted using a Biacore T100 and carried out at 25° C. Biotinylated IL-18Rα or IL-18BP were immobilized onto a Biacore biotin capture chip (Series S CAP sensor chip, GE Healthcare) to yield an Rmax of ˜50 RU (IL-18Rα) or ˜10 RU (IL-18BP). Measurements were made with serial dilutions of the IL-18 variants in HEPES buffered Saline-P+buffer (10 mM HEPES pH 7.4, 150 mM NaCl, 0.005% surfactant P20). The surface was regenerated by three 60-sec injections of regeneration buffer (3/4 (v/v) 8M guanidine hydrochloride with 1/4 (v/v) 1M sodium hydroxide). Experiments were performed in multiple channels simultaneously for increased observations. All data were analyzed with the Biacore T100 evaluation software version 2.0 with a 1:1 Langmuir binding model.

The target is the same in assay [5]. The assay is described as follows: yeast binding isotherms and SPR; members per FIG. 11A legend. The procedure: as §1, §2
For assay [6] the target is unchanged. The assay is described as follows: on-yeast binding isotherms; 10 µM used for NBD; yeast-displayed variant; ratio computed with 10 µM put in for NBD. The procedure: as §1
The target is the same in assay [7]. The assay is described as follows: SPR; KD ratio relative to WT IL-18; SPR; ratio normalized to WT. The procedure:
as §2

For assay [8] the target is unchanged. The assay is described as follows: SPR (Biacore T100), IL-18BP captured via biotin, IL-18 as analyte; SPR, soluble variant. Here is the method:
as §2

In assay [9] the target is T1, Mouse IL-18Rα ectodomain (amino acids …). The assay is described as follows: SPR (Biacore T100), receptor captured via biotin, IL-18 as analyte. Here is the method:
as §2

Assay [10] addresses T3, Human IL-18Rα ectodomain (amino acids 19-329), biotinylated (human, UniProt Q13478 19-329, biotin on the AviTag (BirA ligase)).
T3 construct: range 19-329; Secreted from insect cells (gp67 signal peptide removed); also called hIL-18Rα; hIL18Rα
T3 sequence: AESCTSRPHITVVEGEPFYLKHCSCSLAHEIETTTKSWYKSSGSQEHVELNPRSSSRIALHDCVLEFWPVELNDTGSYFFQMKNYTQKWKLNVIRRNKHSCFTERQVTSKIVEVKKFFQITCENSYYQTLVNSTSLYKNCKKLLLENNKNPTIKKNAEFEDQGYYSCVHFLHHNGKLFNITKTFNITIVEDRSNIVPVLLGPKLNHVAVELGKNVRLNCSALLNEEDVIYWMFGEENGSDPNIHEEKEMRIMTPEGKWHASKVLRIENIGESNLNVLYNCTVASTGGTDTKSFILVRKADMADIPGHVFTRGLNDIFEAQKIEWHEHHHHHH
The assay is described as follows: on-yeast binding isotherm (flow cytometry), drawn summary table, IL18Rα (KD). The procedure, abridged:
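Yeast displaying IL-18 variants were grown at 30 °C, then induced 1 day at 20 °C, with display checked by anti-myc-PE. Cells were stained on ice with biotinylated IL-18Rα (± IL-18Rβ) or biotinylated IL-18BP in PBS/0.5% BSA/2 mM EDTA. Binding was read by flow cytometry.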

In assay [11] the target is T4, Human IL-18BP (amino acids 31-194), biotinylated (human, UniProt O95998 31-194, biotin on the AviTag (BirA ligase) where used biotinylated).
T4 construct: Soluble decoy receptor; also called hIL-18BP; recombinant IL-18BP
T4 sequence: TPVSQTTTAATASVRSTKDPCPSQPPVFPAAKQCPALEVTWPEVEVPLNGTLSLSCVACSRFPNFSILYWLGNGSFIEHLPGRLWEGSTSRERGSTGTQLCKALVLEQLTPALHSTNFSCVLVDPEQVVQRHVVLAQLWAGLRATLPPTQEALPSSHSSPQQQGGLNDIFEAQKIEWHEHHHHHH
The assay is described as follows: on-yeast binding isotherms; KD ratio relative to WT IL-18; yeast-displayed variant; ratio normalized to WT, from the 20 µM placeholder.

Assay [12] has as its target T4, Human IL-18BP (amino acids 31-194), …. The assay is described as follows: on-yeast binding isotherms; 20 µM used for NBD; yeast-displayed variant, flow cytometry; ratio computed with 20 µM put in for NBD.
Assay [13] concerns the target T3, Human IL-18Rα ectodomain (amino acids …). The assay is described as follows: SPR (Biacore T100), receptor captured via biotin, IL-18 as analyte. The procedure:
as §2
To additionally characterize the receptor binding activities of the DR-IL-18 variants, the cytokines were expressed recombinantly and surface plasmon resonance for IL-18Rα and IL-18BP was performed (see FIG. 5B for representative traces).

Some results are limits rather than exact numbers.

B1: SEQ ID NO: 70 (murine DR-IL-18 variant mA7) (ligand)
chain: YFGRLHCTTAVIRNINDQVLFVDKRQPVFEDMTDIDQSASEPQTRLIIYAYGDNRVRGKAVTLSVKDSKMSTLSCKNKIISFEEMDPPENIDDIQSDLIFFQKRVPGHNKMEFESSLYEGHFLACQKEDDAFKLILKKKDENGDKSVMFTLTNLHQS
notes: Engineered variant
Regarding B1, the Kd is 13.5 nM in assay [1], greater than 1000 nM in assay [5], 13900 nM in assay [8] and 0.22 nM in assay [9]. Also, the “IL-18 BP:Rα Dissociation Constant Ratio” value in assay [2] came to 3.5e+07. Moreover, the “Dissociation Constant Ratio normalized to WT IL-18” value was greater than 3930 in assay [3] and 3.45e+07 in assay [7]. Also, the entries for the “KD ratio IL-18BP/IL-18Rα” value in [4] and in [6] were 63200 and greater than 741, respectively.

B2: SEQ ID NO: 35 (human DR-IL-18 variant hCS2) (ligand)
chain: YFGKLESKLSVIRNLNDQVLFIDQGNRPLFEDMTDSDCRDNAPRTIFIISTYKDKQPRAKAVTISVKCEKISTLSCENKIISFKEMNPPDNIKDTKSDIIFFQRDVPGHKHKMQFESSSYEGYFLACEKERDLFKLILKKEDELGDRSIMFTIQNED
notes: Engineered variant
B2: the equilibrium dissociation constant (Kd) in [10] stood at 92 nM; in [13], 13.1 nM. For the same molecule, the “Dissociation Constant Ratio normalized to WT IL-18” value in [11] is greater than 741. The “KD ratio IL-18BP/IL-18Rα” value in assay [12] is greater than 219.
